Results on two molecules are retold here after patent publication US20250017968A1 (CHINA MEDICAL UNIVERSITY, published 2025).

For assay [1], the target named is T1, full-length human EphA10 expressed on NIH 3T3 cells (human, UniProt Q5JZY3 34-1008).
T1 construct: whole, on cells
T1 sequence (looked up): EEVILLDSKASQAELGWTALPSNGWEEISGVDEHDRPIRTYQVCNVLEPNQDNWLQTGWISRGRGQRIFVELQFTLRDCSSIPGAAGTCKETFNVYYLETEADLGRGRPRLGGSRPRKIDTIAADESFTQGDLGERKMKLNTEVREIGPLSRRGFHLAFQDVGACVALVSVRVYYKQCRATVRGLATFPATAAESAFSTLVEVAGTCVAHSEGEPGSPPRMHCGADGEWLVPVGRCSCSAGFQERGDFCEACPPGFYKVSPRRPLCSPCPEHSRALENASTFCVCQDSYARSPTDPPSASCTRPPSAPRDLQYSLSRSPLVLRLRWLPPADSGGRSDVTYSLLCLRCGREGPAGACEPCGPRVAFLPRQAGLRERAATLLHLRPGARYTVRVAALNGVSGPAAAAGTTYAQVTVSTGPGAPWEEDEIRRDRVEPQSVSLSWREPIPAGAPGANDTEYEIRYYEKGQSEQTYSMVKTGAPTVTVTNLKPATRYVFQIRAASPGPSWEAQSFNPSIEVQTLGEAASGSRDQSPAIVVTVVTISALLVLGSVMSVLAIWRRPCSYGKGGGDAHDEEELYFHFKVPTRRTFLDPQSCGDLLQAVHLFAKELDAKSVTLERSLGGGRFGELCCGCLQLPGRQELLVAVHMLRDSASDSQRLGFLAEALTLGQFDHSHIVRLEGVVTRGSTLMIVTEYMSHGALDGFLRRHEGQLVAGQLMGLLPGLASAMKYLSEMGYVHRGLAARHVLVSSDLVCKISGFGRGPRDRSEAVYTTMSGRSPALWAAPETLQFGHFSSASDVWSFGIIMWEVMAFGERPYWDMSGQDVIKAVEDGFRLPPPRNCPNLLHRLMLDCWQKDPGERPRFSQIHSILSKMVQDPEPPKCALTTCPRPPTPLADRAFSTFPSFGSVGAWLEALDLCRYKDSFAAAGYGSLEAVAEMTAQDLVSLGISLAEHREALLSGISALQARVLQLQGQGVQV
Briefly: FACS on NIH 3T3 cells expressing full-length human EphA10.

The target in assay [2] is T2, EphA10 antigen (R&D systems) (Homo sapiens (Human), UniProt Q5JZY3 34-565).
T2 construct: Coated antigen in the indirect ELISA; The Biacore assay says only 'EphA 10' without source or form; also called ephrin type-A receptor 10
T2 sequence: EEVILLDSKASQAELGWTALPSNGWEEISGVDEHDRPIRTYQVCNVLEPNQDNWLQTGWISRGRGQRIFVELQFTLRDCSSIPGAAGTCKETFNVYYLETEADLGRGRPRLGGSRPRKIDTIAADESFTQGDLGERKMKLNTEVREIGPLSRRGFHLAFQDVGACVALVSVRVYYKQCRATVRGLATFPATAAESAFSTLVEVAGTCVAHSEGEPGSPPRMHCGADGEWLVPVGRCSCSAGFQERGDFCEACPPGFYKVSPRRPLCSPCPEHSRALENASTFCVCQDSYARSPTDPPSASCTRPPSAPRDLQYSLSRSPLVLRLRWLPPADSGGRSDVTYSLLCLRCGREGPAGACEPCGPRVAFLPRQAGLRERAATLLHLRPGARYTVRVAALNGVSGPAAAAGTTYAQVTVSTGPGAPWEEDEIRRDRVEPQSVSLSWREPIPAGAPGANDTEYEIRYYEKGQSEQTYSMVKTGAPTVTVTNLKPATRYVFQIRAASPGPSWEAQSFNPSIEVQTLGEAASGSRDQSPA
Briefly: Biacore 8K SPR, global fit to 1:1 binding model, triplicates. From the text:
CMU #13 was also subjected to a Biacore assay.

Assay [3] has as its target T2, EphA10 antigen (R&D systems). Put plainly: indirect ELISA on coated EphA antigen, ScFv-mouse IgG2a antibody titrated. Here is the method:
ScFv sequences were fused with mouse IgG2a sequence and sub-cloned into pcDNA3.1 plasmid. Three ScFv-mouse IgG2a plasmids were transfected into HEK293 cells. Three ScFv-mouse IgG2a antibodies were purified by protein A resin. Three antibodies were tested for indirect ELISA against coated 9 EPHA antigens (EphA1-8 and 10, R&D systems).
A general note: An ELISA detects its analyte on a solid surface through an enzyme-linked reagent.

B1: CMU #13 scFv (clone from human B cell-derived scFv phage display library) (scFv)
scFv: QVQLVQSGAEVKKPGSSVKVSCKASGGTFSSYAISWVRQAPGQGLEWMGGIIPIFGTANYAQKFQGRVTITADESTSTAYMELSSLRSEDTAVYYCAREGDSYGYYYGMDVWGQGTTVTVSSGGGGSGGGGSGGGGSQPVLTQPPSASGTPGQRVTISCSGSSSNIGSNYVYWYQQLPGTAPKLLIYENYLRPSGVPDRFSGSKTGTSASLAISGLQSEDEADYYCAAWDDSLNGYVFGTGTQLTVLS
On to B1, for which the binding result in assay [1] is recorded as “binds”.

B2: CMU #13 ScFv-mouse IgG2a antibody (Fc fusion)
chain: QVQLVQSGAEVKKPGSSVKVSCKASGGTFSSYAISWVRQAPGQGLEWMGGIIPIFGTANYAQKFQGRVTITADESTSTAYMELSSLRSEDTAVYYCAREGDSYGYYYGMDVWGQGTTVTVSSGGGGSGGGGSGGGGSQPVLTQPPSASGTPGQRVTISCSGSSSNIGSNYVYWYQQLPGTAPKLLIYENYLRPSGVPDRFSGSKTGTSASLAISGLQSEDEADYYCAAWDDSLNGYVFGTGTQLTVLSEPRGPTIKPCPPCKCPAPNLLGGPSVFIFPPKIKDVLMISLSPIVTCVVVDVSEDDPDVQISWFVNNVEVHTAQTQTHREDYNSTLRVVSALPIQHQDWMSGKEFKCKVNNKDLPAPIERTISKPKGSVRAPQVYVLPPPEEEMTKKQVTLTCMVTDFMPEDIYVEWTNNGKTELNYKNTEPVLDSDGSYFMYSKLRVEKKNWVERNSYSCSVVHEGLHNHHTTKSFSRTPGK
notes: The Biacore assay names only 'CMU #13'; also called anti-EphA10 antibody CMU #13
As usually defined, the Kd is the concentration at which binding is half-saturated. High values mean weaker binding, low ones tighter binding. Usually koff stands for the rate constant with which the complex falls apart. High values mean a short-lived complex, low ones a long-lived complex. In general, kon refers to a measure of how fast the partners come together. What is called EC50 (read off the curve) is the concentration giving half of the maximal effect. In the case of B2, in assay [2], binding was characterised by a dissociation constant (Kd) of 1.79 nM, the dissociation rate constant (koff) worked out at 0.00288 s⁻¹ and the on-rate constant (kon) was found to be 1.61e+06 M⁻¹ s⁻¹. In assay [3], the concentration for a half-maximal effect (EC50 (read off the curve)) is about 0.4 nM.
